Assay results taken from patent publication US20190030139.

Key:
USP10 S76 peptide = system: T1, USP10 S76 peptide
T1 sequence: TLPRTPSYSISST

| Substance | initial rate of phosphorylation (in vitro kinase assay, 32P incorporation) (USP10 S76 peptide) [pmol/min/reaction mix] | maximal stoichiometry of phosphorylation (USP10 S76 peptide) [mol/mol] | initial rate of phosphorylation (in vitro kinase assay, 32P incorporation) (SAMS peptide (Abcam)) [pmol/min/reaction mix] | maximal stoichiometry of phosphorylation (SAMS peptide (Abcam)) [mol/mol] | in vitro deubiquitination assay, immunoblot (FIG. 3H) (Ubiquitinated AMPKα2) | in vitro deubiquitination assay, immunoblot (FIG. 4C) (Ubiquitinated AMPKα1) |
| --- | --- | --- | --- | --- | --- | --- |
| Purified AMPK (Upstate Biotechnology) | 155±36 | 0.46±0.04 | 95±18 | 0.35±0.02 | – | – |
| USP10CA (catalytically inactive CA mutant, recombinant) | – | – | – | – | the catalytically inactive CA mutant could not | the catalytically inactive CA mutant could not |
